Data taken from patent US20210363269A1 (ALX ONCOLOGY, published 2021).

T1: cynomolgus SIRP-α D1 domain (SEQ ID NO:11) (cynomolgus, UniProt Q5TFQ8 30-148 (human entry), limits assumed)
T1 construct: also called cyno1
T1 chain: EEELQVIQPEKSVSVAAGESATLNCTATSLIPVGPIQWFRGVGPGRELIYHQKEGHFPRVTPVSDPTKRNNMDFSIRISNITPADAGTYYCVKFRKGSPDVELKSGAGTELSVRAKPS

T2: mouse 129 SIRP-α D1 domain (mouse (129 strain), UniProt P97797 32-150)
T2 construct: also called m129
T2 chain: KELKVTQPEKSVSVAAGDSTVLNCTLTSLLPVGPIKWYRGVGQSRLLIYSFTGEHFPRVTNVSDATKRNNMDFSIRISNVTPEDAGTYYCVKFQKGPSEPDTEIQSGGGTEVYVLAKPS

T3: C57BL/6 mouse SIRP-α D1 domain (mouse (C57BL/6 strain), UniProt P97797 32-148)
T3 sequence: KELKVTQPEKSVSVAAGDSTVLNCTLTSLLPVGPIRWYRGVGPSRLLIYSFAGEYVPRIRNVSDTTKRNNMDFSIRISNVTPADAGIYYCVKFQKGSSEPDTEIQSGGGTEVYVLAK

T4: high affinity SIRP-α D1 variant CV1-3
T4 chain: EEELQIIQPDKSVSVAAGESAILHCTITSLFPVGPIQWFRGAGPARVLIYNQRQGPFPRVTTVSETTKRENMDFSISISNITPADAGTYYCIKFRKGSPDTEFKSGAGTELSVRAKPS

T5: cynomolgus SIRP-α D1 domain (cyno2) (cynomolgus monkey, UniProt Q5TFQ8 30-148 (human entry), limits assumed)
T5 chain: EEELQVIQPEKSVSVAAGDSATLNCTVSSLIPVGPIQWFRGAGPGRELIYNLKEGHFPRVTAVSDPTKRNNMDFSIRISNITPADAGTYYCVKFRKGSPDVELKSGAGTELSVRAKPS


Legend:
[1] = target: T6, human SIRP-α v1 D1 domain (human, UniProt P78324 31-149); assay: SPR, antibody immobilised on GLC chip
T6 construct: also called human v1; human α v1
Method: (§1) All experiments were performed at 25° C. using a SPR-based ProteOn XPR36 biosensor (BioRad, Inc, Hercules, Calif.) equipped with GLC or NLC sensor chips. […] Purification was carried out by standard Protein A affinity column chromatography and eluted antibodies were stored in PBS buffer.
(§2) For the method using GLC chip, the analytes were injected and flowed over anti-SIRPα antibodies immobilized (˜1000 RUs) on GLC chips using Proteon™ Amine Coupling Kit. For the immobilization step, GLC chip was activated with EDAC/Sulpho-NHS 1:1 (Biorad) diluted 1/100 for 300 s at 25 μL/min. Anti-SIRPα antibodies were diluted to 80 nM concentration in 10 mM sodium acetate buffer pH 4.5 and immobilized to the chip at 30 μL/min for 50 s. Chip was inactivated with ethanolamine for 300 s at 25 μL/min. The analytes (e.g., SIRP-α from different species, SIRP-β, SIRP-γ) were injected in a “one-shot” kinetic mode at nominal concentrations of 100, 33, 11, 3.7, 1.2 and 0 nM. Association times were monitored for 90 s at 100 μL/min, and dissociation times were monitored for 1200 s. The surfaces were regenerated with a 2:1 v/v blend of Pierce IgG elution buffer/4M NaCl.
T6 sequence (P78324 31-149 limits assumed): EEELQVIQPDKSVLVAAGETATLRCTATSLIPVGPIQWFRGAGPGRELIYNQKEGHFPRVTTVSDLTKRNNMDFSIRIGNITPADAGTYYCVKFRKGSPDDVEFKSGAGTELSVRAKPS

[2] = target: T7, human SIRP-α v2 D1 domain (human); assay: SPR, antibody immobilised on GLC chip
T7 construct: also called human v2; human α v2
Method: as §1, §2
T7 sequence (chain, as listed by the source limits assumed): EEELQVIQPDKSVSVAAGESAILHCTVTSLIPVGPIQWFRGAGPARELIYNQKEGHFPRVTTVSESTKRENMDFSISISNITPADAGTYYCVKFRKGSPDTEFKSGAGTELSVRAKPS

[3] = target: T1, cynomolgus SIRP-α D1 domain (SEQ ID …); assay: SPR, antibody immobilised on GLC chip
Method: as §1, §2

[4] = target: T2, mouse 129 SIRP-α D1 domain; assay: SPR
How it was run: (§3)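 Pre-filtered culture media supplied the scFv-Fc antibody clones, which were captured by anti-human IgG Fc amine-coupled (about 4000 RU) to a GLC chip on a ProteOn XPR36. SIRP analytes were flowed in PBS pH 7.4 with 0.01% Tween-20 at 25° C. Interspot and buffer-blank responses were subtracted from the data, which were then fitted to a 1:1 Langmuir model. Dissociation rate constants (koff) were derived from this fitting.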

[5] = target: T3, C57BL/6 mouse SIRP-α D1 domain; assay: SPR
How it was run: as §3

[6] = target: T4, high affinity SIRP-α D1 variant CV1-3; assay: SPR, Langmuir fit
How it was run: as §3

[7] = target: T8, human SIRPγ isoform 1 (human, UniProt Q9P1W8 29-147); assay: SPR, Langmuir fit
T8 construct: also called SIRPg; sirpg
How it was run: as §3

[8] = target: T9, human SIRP-α v1 D1 domain (human, UniProt P78324 31-149); assay: SPR, Langmuir fit
T9 construct: also called human v1
How it was run: as §3
T9 sequence (P78324 31-149 limits assumed): as the sequence (P78324 31-149 limits assumed) above

[9] = target: T10, human SIRP-α v2 D1 domain (human); assay: SPR, Langmuir fit
T10 construct: also called human v2
How it was run: as §3
T10 sequence (chain, as listed by the source limits assumed): as the sequence (chain, as listed by the source limits assumed) above

[10] = target: T5, cynomolgus SIRP-α D1 domain (cyno2); assay: SPR, Langmuir fit
How it was run: as §3

[11] = target: T11, human SIRPβ isoform 1 (human, UniProt O00241 30-148); assay: SPR, Langmuir fit
T11 construct: also called SIRPb; sirpb1
How it was run: as §3

T8 sequence (Q9P1W8 29-147 limits assumed): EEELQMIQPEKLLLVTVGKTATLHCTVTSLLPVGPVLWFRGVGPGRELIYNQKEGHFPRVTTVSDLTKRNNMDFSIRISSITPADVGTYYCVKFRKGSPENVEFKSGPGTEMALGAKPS
T11 sequence (O00241 30-148 limits assumed): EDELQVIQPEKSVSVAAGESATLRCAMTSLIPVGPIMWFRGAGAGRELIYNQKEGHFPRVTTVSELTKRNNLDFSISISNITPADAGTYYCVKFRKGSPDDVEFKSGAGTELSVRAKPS

Row | Binder | Kd [1] [nM] | Kd [2] [nM] | Kd [3] [nM] | binding result [4] | binding result [5] | koff [6] [s⁻¹] | koff [7] [s⁻¹] | koff [8] [s⁻¹] | koff [9] [s⁻¹] | koff [10] [s⁻¹] | koff [11] [s⁻¹]
1 | antibody 119 variant wt/mut (VL wt / VH mut) (antibody, human IgG1, V domains shown, Human IgG1 with L234A/L235A/G237A/N297A; Labels are in the order VL/VH) VH: EVQLLESGGGVVQPGGSLRLSCAASGFSFSNFAVTWVRQAPGKGLEWVSTIGSGDTYYADSVKGRFTISRDNSKNTLYLQMNSLRAEDTAVYYCAKDSTVSWSGDFFDYWGQGTLVTVSS VL: EIVLTQSPATLSVSPGERATFSCRASQNVKNDLAWYQQRPGQAPRLLIYAARIRETGIPERFSGSGSGTEFTLTITSLQSEDFAVYYCQQYYDWPPFTFGGGTKVEIK | 0.254 | 0.0694 | 0.155 |  |  |  |  |  |  |  | 
2 | S163 (scFv, V domains shown) VH: DVQLVESGGGLVRPGESLRLSCAASGFTFTNYAVTWVRQAPGEGLEWVSLISVTGTTYYADSVKGRFTISRDNSKSTLYLQMNGLRAEDTAVYYCAKVTWKNVFDYWGLGTLVTVSS VL: EIVLTQSPGTLSVSPGERATFSCRASQTVGSKLAWYQQKPGQAPRLLIYDANTRATGIPARFSGSGSGTEFTLTISSLQSEDFAVYYCQQHTDWPPYTFGGGTKVEIK |  |  |  | no binding (tested: Koff > 5 × 10^3 (legend)) | no binding (tested: Koff > 5 × 10^3 (legend)) | 0.00174 | 0.00315 | 0.000535 | 0.00664 | 0.000242 | 0.0017
3 | S164 (scFv, V domains shown) VH: DVQLVESGGGLVRPGESLRLSCAASGFTFTNYAVTWVRQAPGEGLEWVSLISVTGTTYYADSVKGRFTISRDNSKSTLYLQMNGLRAEDTAVYYCAKVTWKNVFDYWGLGTLVTVSS VL: EIVLTQSPGTLSVSPGERATFSCRASQTVGSKLAWYQQKPGQAPRLLIYDANTRATGIPARFSGSRSGTEFTLTISSLQSEDFAVYYCQQHTDWPPYTFGGGTKVEIK |  |  |  | no binding (tested: Koff > 5 × 10^3 (legend)) | no binding (tested: Koff > 5 × 10^3 (legend)) | 0.00134 | 0.00426 | 0.000595 | 0.00989 | 0.000408 | 0.00167
4 | S162 (scFv, V domains shown) VH: DVQLVESGGGLVRPGESLRLSCAASGFTFTNYAVTWVRQAPGEGLEWVSLISVTGTTYYADSVKGRFTISRDNSKSTLYLQMNSLRAEDTAVYYCAKVTWKNVFDYWGLGTLVTVSS VL: EIVLTQSPGTLSVSPGERATFSCRASQTVGSKLAWYQQKPGQAPRLLIYDANTRATGIPARFSGSGSGTEFTLTISSLQSEDFAVYYCQQHTDWPPYTFGGGTKVEIK |  |  |  | no binding (tested: Koff > 5 × 10^3 (legend)) | no binding (tested: Koff > 5 × 10^3 (legend)) | 0.00152 |  |  |  | 0.000318 | 
